# Test results: paper PMC9667302
# Molecular target: Bluetongue virus (BTV-1) membrane penetration protein VP5 (bluetongue virus (BTV-1))
# Experiment: cryo-EM structure
substance,measurement,value
Bluetongue virus (BTV-1) membrane penetration protein VP5 (natural protein),stoichiometry N,3
